These results are taken from paper PMC10998907 (2024).

For orientation: Kd means the equilibrium constant for the complex coming apart. A high value points to lower affinity. What is called koff is the rate constant with which the complex falls apart. Read a low koff as slow dissociation.

What all share (experiment): BLI
For orientation: BLI is a label-free optical method that tracks binding on a fibre tip over time.

Experiment [1] deals with T1, HeV-RBP global head domain, His-tagged (Hendra virus, UniProt O89343 183-602, biotinylated for BLI only (EZ-link Sulfo-NHS-LC-Biotin)).
Experiment [2] deals with T2, NiV-RBP global head domain, His-tagged (Nipah virus, UniProt Q9IH62, biotinylated for BLI only (EZ-link Sulfo-NHS-LC-Biotin)).
T2 chain: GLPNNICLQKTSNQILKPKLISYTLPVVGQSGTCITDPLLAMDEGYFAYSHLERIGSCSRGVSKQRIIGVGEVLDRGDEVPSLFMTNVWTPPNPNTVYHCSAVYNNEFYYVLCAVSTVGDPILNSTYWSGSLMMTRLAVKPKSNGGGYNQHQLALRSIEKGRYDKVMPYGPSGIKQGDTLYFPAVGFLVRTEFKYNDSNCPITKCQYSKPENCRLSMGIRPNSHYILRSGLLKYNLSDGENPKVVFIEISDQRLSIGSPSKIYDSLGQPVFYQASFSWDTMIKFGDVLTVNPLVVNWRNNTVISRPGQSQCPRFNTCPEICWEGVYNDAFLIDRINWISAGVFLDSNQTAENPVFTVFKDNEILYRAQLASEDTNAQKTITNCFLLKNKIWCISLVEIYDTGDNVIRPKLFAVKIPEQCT

Experiment [3] deals with T1, HeV-RBP global head domain, His-tagged. The source holds these as a separate data set.
Experiment [4] concerns the target T2, NiV-RBP global head domain, His-tagged.

T1 sequence (O89343 183-602): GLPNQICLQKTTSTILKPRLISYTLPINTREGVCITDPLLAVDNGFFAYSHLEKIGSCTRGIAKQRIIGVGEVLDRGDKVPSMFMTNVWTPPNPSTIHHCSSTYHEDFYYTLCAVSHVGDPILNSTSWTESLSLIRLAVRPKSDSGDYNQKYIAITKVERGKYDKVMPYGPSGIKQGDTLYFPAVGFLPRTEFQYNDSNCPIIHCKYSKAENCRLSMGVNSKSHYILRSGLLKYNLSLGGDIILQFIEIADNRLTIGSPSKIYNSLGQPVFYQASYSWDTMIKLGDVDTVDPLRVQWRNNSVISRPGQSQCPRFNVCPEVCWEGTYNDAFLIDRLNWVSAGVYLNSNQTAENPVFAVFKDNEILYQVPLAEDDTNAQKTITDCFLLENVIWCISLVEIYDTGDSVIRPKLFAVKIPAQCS

B1: 41-6 Fab fragment (Fab, V domains shown)
VH: EVQLVQSGGGLVQPGGSLRLSCAASGFTVSSNYMSWVRQAPGKGLEWVSAISGSGGSTYYADSVKGRFTISRDNSKNTLYLQMNSLRAEDTAVYYCARDREDIVVVPAPRGYYYYYYMDVWGQGTTVTVSS
VL: QSVVTQPPSVSAAPGQKVTISCSGSSSNIGTNHLSWYQQVPGTAPKLLIYDNNKRPSGIPDRFSGSKSGTSASLAISGLQSEDEADYYCATWDDSLHAWVFGGGTKLTVL
Regarding B1, the Kd was 5.4 nM in experiment [1] and 3.6 nM in experiment [2]. In addition, the results for the dissociation rate constant (koff) in experiment [3] and in experiment [4] were 0.00018 s⁻¹ and 0.0002 s⁻¹, respectively.
